According to patent US20170283834A1, “Processes for Producing A Fermentation Product Using A Fermenting Organism” (Novozymes A/S, priority 2014, published 2017):

Test: Penicillium oxalicum glucoamylase: pH stability
Type: biochemical
Procedure: Substrate: 1% soluble starch (Sigma S-9765) in deionized water
20 microL soluble starch and 50 microL acetate buffer at pH 5.3 were mixed. 30 microL enzyme solution (50 micro g enzyme protein/ml) was added to a final volume of 100 microL followed by incubation at 37° C. for 15 min.
The glucose concentration was determined by Wako kits.
pH optimum. To assess the pH optimum of the Penicillium oxalicum glucoamylase the Reaction condition assay described above was performed at pH 2.0, 3.0, 3.5, 4.0, 4.5, 5.0, 6.0 7.0, 8.0, 9.0, 10.0 and 11.0. Instead of using the acetate buffer described in the Reaction condition assay the following buffer was used 100 mM Succinic acid, HEPES, CHES, CAPSO, 1 mM CaCl2, 150 mM KCl, 0.01% Triton X-100, pH adjusted to 2.0, 3.0, 3.5, 4.0, 4.5, 5.0, 6.0 7.0, 8.0, 9.0, 10.0 or 11.0 with HCl or NaOH.
To assess the […] of the Penicillium oxalicum glucoamylase the Reaction condition assay was modifed in that the enzyme solution (50 micro g/mL) was preincubated for 20 hours in buffers with pH 2.0, 3.0, 3.5, 4.0, 4.5, 5.0, 6.0 7.0, 8.0, 9.0, 10.0 and 11.0 using the buffers described under pH optimum. After preincubation, 20 microL soluble starch to a final volume of 100 microL was added to the solution and the assay was performed as described above.

B1: Penicillium oxalicum glucoamylase: wild type Penicillium oxalicum glucoamylase disclosed in SEQ ID NO: 9 (protein, listed as Penicillium oxalicum)
chain: MRLTLLSGVAGVLCAGQLTAARPDPKGGNLTPFIHKEGERSLQGILDNLGGRGKKTPGTAAGLFIASPNTENPNYYYTWTRDSALTAKCLIDLFEDSRAKFPIDRKYLETGIRDYVSSQAILQSVSNPSGTLKDGSGLGEPKFEIDLNPFSGAWGRPQRDGPALRATAMITYANYLISHGQKSDVSQVMWPIIANDLAYVGQYWNNTGFDLWEEVDGSSFFTIAVQHRALVEGSQLAKKLGKSCDACDSQPPQILCFLQSFWNGKYITSNINTQASRSGIDLDSVLGSIHTFDPEAACDDATFQPCSARALANHKVYVDSFRSIYKINAGLAEGSAANVGRYPEDVYQGGNPWYLATLGASELLYDALYQWDRLGKLEVSETSLSFFKDFDATVKIGSYSRNSKTYKKLTQSIKSYADGFIQLVQQYTPSNGSLAEQYDRNTAAPLSANDLTWSFASFLTATQRRDAVVPPSWGAKSANKVPTTCSASPVVGTYKAPTATFSSKTKCVPAKDIVPITFYLIENTYYGENVFMSGNITALGNWDAKKGFPLTANLYTQDQNLWFASVEFIPAGTPFEYKYYKVEPNGDITWEKGPNRVFVAPTGCPVQPHSNDVWQF
Relative activity (%) (preincubated 20 hours at pH 2.0): 17.4% | Relative activity (%) (preincubated 20 hours at pH 3.0): 98.0% | Relative activity (%) (preincubated 20 hours at pH 3.5): 98.0% | Relative activity (%) (preincubated 20 hours at pH 4.0): 103.2% | Relative activity (%) (preincubated 20 hours at pH 4.5): 100.0% | Relative activity (%) (preincubated 20 hours at pH 5.0): 93.4% | Relative activity (%) (preincubated 20 hours at pH 6.0): 71.2% | Relative activity (%) (preincubated 20 hours at pH 7.0): 90.7% | Relative activity (%) (preincubated 20 hours at pH 8.0): 58.7% | Relative activity (%) (preincubated 20 hours at pH 9.0): 17.4% | Relative activity (%) (preincubated 20 hours at pH 10.0): 17.0% | Relative activity (%) (preincubated 20 hours at pH 11.0): 17.2%
